Test results as given in publication PMC13215203, “Phosphorylation remodels the mitotic centrosome matrix to generate bipartite γ-tubulin complex docking sites” (Science Advances, 2026).

Tests used:
[1] = biological target: T1, untagged SPD-5 amino acids 101-473, not phosphorylated (C. elegans, UniProt P91349 101-473); assay: pull-down; MBP pull-down: purified SPD-5 fragments mixed (2.0 μM) with or without PLK1(T194D) in kinase buffer, then 75 nM each with anti-MBP antibody in lysis buffer 2 h at 4°C and protein A beads 1 h; M6HH-tagged fragment is the bait; immunoblot; settings: both partners purified
T1 construct: also called fragment containing the γTuNA-In and PRGB2; source: E. coli BL21(DE3) pLysS, purified (glutathione agarose, cut from GST with PreScission or HRV-3C protease)
T1 sequence (looked up): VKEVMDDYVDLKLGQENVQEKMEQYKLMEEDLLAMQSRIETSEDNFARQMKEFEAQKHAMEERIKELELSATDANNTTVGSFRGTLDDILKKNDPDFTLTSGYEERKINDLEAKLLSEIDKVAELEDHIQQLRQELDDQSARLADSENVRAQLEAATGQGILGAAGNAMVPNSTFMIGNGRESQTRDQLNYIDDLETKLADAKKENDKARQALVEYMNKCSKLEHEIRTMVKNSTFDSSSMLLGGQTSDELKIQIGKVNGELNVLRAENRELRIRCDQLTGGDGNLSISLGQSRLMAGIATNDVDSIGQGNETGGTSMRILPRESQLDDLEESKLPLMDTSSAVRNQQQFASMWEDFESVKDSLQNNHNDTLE

[2] = biological target: the molecule itself; assay: SEC-MALS; Superose 6 increase 10/300 or Superdex 200 increase 10/300 in 20 mM tris-HCl pH 7.5, 50 mM NaCl, 5 mM EGTA, 2 mM MgCl2, 1 mM DTT; 120 μl of ~2.0 mg/ml protein loaded; with or without PLK1 phosphorylation
[3] = biological target: T2, M6HH-tagged SPD-5 amino acids 1-113 (PRGB1), not phosphorylated (C. elegans, UniProt P91349 1-113); assay: pull-down; MBP pull-down: purified SPD-5 fragments mixed (2.0 μM) with or without PLK1(T194D) in kinase buffer, then 75 nM each with anti-MBP antibody in lysis buffer 2 h at 4°C and protein A beads 1 h; M6HH-tagged fragment is the bait; immunoblot; settings: both partners purified
T2 construct: source: E. coli BL21(DE3) pLysS, purified (Ni-NTA)
T2 sequence (looked up): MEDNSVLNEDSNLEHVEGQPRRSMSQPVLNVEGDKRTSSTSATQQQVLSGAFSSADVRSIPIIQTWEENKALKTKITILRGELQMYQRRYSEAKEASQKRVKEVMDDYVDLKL

Row | Binder | stoichiometry N [2] | also measured
1 | M6HH-tagged SPD-5 amino acids 1-101 (PRGB1), not phosphorylated (domain or fragment, C. elegans, UniProt P91349 1-101, looked up, source: E. coli BL21(DE3) pLysS, purified (Ni-NTA)) MEDNSVLNEDSNLEHVEGQPRRSMSQPVLNVEGDKRTSSTSATQQQVLSGAFSSADVRSIPIIQTWEENKALKTKITILRGELQMYQRRYSEAKEASQKRV |  | binding result [1]: binds
2 | untagged SPD-5 amino acids 1-473, not phosphorylated (domain or fragment, C. elegans, UniProt P91349 1-473, looked up, also called SPD-5 N terminus; source: E. coli BL21(DE3) pLysS, purified (glutathione agarose, cut from GST with PreScission or HRV-3C protease; gel filtration)) MEDNSVLNEDSNLEHVEGQPRRSMSQPVLNVEGDKRTSSTSATQQQVLSGAFSSADVRSIPIIQTWEENKALKTKITILRGELQMYQRRYSEAKEASQKRVKEVMDDYVDLKLGQENVQEKMEQYKLMEEDLLAMQSRIETSEDNFARQMKEFEAQKHAMEERIKELELSATDANNTTVGSFRGTLDDILKKNDPDFTLTSGYEERKINDLEAKLLSEIDKVAELEDHIQQLRQELDDQSARLADSENVRAQLEAATGQGILGAAGNAMVPNSTFMIGNGRESQTRDQLNYIDDLETKLADAKKENDKARQALVEYMNKCSKLEHEIRTMVKNSTFDSSSMLLGGQTSDELKIQIGKVNGELNVLRAENRELRIRCDQLTGGDGNLSISLGQSRLMAGIATNDVDSIGQGNETGGTSMRILPRESQLDDLEESKLPLMDTSSAVRNQQQFASMWEDFESVKDSLQNNHNDTLE | 2 | 
3 | M6HH-tagged SPD-5 amino acids 1-473, not phosphorylated (domain or fragment, C. elegans, UniProt P91349 1-473, looked up, source: E. coli BL21(DE3) pLysS, purified (Ni-NTA)) MEDNSVLNEDSNLEHVEGQPRRSMSQPVLNVEGDKRTSSTSATQQQVLSGAFSSADVRSIPIIQTWEENKALKTKITILRGELQMYQRRYSEAKEASQKRVKEVMDDYVDLKLGQENVQEKMEQYKLMEEDLLAMQSRIETSEDNFARQMKEFEAQKHAMEERIKELELSATDANNTTVGSFRGTLDDILKKNDPDFTLTSGYEERKINDLEAKLLSEIDKVAELEDHIQQLRQELDDQSARLADSENVRAQLEAATGQGILGAAGNAMVPNSTFMIGNGRESQTRDQLNYIDDLETKLADAKKENDKARQALVEYMNKCSKLEHEIRTMVKNSTFDSSSMLLGGQTSDELKIQIGKVNGELNVLRAENRELRIRCDQLTGGDGNLSISLGQSRLMAGIATNDVDSIGQGNETGGTSMRILPRESQLDDLEESKLPLMDTSSAVRNQQQFASMWEDFESVKDSLQNNHNDTLE | 2 | 
4 | untagged SPD-5 amino acids 1-473, phosphorylated by PLK1 (domain or fragment, C. elegans, UniProt P91349 1-473, looked up, phosphorylated in vitro by PLK1; predicted sites S5, S11, S170, T178, T198, T274, T335, S339, S340, also called SPD-5 N terminus; source: E. coli BL21(DE3) pLysS, purified (glutathione agarose, cut from GST), then incubated with PLK1 and ATP) MEDNSVLNEDSNLEHVEGQPRRSMSQPVLNVEGDKRTSSTSATQQQVLSGAFSSADVRSIPIIQTWEENKALKTKITILRGELQMYQRRYSEAKEASQKRVKEVMDDYVDLKLGQENVQEKMEQYKLMEEDLLAMQSRIETSEDNFARQMKEFEAQKHAMEERIKELELSATDANNTTVGSFRGTLDDILKKNDPDFTLTSGYEERKINDLEAKLLSEIDKVAELEDHIQQLRQELDDQSARLADSENVRAQLEAATGQGILGAAGNAMVPNSTFMIGNGRESQTRDQLNYIDDLETKLADAKKENDKARQALVEYMNKCSKLEHEIRTMVKNSTFDSSSMLLGGQTSDELKIQIGKVNGELNVLRAENRELRIRCDQLTGGDGNLSISLGQSRLMAGIATNDVDSIGQGNETGGTSMRILPRESQLDDLEESKLPLMDTSSAVRNQQQFASMWEDFESVKDSLQNNHNDTLE | 2 | 
5 | M6HH-tagged SPD-5 amino acids 1-345, not phosphorylated (domain or fragment, C. elegans, UniProt P91349 1-345, looked up, source: E. coli BL21(DE3) pLysS, purified (Ni-NTA)) MEDNSVLNEDSNLEHVEGQPRRSMSQPVLNVEGDKRTSSTSATQQQVLSGAFSSADVRSIPIIQTWEENKALKTKITILRGELQMYQRRYSEAKEASQKRVKEVMDDYVDLKLGQENVQEKMEQYKLMEEDLLAMQSRIETSEDNFARQMKEFEAQKHAMEERIKELELSATDANNTTVGSFRGTLDDILKKNDPDFTLTSGYEERKINDLEAKLLSEIDKVAELEDHIQQLRQELDDQSARLADSENVRAQLEAATGQGILGAAGNAMVPNSTFMIGNGRESQTRDQLNYIDDLETKLADAKKENDKARQALVEYMNKCSKLEHEIRTMVKNSTFDSSSMLLGG | 2 | 
6 | Halo-tagged SPD-5 amino acids 135-200, not phosphorylated (domain or fragment, C. elegans, UniProt P91349 135-200, looked up, source: E. coli BL21(DE3) pLysS, purified (Ni-NTA)) MQSRIETSEDNFARQMKEFEAQKHAMEERIKELELSATDANNTTVGSFRGTLDDILKKNDPDFTLT |  | binding result [3]: binds
